According to patent US20250262210A1 (TRUSTEES OF COLUMBIA UNIVERSITY IN THE CITY OF NEW YORK, published 2025):

Key:
Assay in all cases: IP/MS, LZTR1 R810W-FLAG, U87
RNF213 = RNF213 (human, UniProt Q63HN8 1-5207, limits assumed)
Outline: (§1)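 Gel slices were reduced with 5 mM DTT, alkylated with 11 mM IAA and digested overnight at 37° C. with trypsin. Peptides were analysed on an Orbitrap Fusion Tribrid by LC-MS/MS.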

AMBRA1 = target: T1, AMBRA1 (human, UniProt Q9C0C7 1-1298, limits assumed)
T1 sequence (looked up): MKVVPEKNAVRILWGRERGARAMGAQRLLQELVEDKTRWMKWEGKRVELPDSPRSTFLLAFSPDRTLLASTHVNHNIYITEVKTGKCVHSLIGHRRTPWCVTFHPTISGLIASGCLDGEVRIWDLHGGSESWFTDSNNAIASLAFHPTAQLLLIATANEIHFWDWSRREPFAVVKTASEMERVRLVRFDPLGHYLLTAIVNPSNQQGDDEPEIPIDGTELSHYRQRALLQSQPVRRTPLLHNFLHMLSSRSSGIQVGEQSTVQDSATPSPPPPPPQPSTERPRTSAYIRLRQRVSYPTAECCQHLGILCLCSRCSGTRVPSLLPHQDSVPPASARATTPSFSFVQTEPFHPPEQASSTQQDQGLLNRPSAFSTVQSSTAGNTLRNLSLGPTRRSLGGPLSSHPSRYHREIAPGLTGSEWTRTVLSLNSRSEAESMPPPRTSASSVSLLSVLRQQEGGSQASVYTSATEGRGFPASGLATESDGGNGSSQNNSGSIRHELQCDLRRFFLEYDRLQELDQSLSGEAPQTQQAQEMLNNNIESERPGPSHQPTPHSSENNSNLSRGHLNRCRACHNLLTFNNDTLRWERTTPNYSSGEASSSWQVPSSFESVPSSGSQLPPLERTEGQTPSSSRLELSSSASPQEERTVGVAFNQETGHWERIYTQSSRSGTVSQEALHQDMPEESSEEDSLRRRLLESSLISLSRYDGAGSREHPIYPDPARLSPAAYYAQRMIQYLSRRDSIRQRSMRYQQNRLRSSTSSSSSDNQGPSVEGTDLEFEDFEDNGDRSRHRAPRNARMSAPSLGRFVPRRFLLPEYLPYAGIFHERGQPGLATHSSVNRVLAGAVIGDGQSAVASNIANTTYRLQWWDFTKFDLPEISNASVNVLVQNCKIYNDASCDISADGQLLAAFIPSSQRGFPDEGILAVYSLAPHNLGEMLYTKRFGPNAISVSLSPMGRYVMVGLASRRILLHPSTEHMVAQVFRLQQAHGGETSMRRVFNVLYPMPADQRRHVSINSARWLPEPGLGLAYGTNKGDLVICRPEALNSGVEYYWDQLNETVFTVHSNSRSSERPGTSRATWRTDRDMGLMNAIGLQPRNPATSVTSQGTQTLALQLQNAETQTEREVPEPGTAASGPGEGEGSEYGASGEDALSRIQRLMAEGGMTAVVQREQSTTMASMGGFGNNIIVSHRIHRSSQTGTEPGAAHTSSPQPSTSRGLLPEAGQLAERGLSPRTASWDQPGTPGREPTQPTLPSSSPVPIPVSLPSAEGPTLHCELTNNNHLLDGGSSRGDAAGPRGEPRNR
Outline: as §1

EMC1 = target: T2, EMC1 (human, UniProt Q8N766 23-993, limits assumed)
T2 sequence (looked up): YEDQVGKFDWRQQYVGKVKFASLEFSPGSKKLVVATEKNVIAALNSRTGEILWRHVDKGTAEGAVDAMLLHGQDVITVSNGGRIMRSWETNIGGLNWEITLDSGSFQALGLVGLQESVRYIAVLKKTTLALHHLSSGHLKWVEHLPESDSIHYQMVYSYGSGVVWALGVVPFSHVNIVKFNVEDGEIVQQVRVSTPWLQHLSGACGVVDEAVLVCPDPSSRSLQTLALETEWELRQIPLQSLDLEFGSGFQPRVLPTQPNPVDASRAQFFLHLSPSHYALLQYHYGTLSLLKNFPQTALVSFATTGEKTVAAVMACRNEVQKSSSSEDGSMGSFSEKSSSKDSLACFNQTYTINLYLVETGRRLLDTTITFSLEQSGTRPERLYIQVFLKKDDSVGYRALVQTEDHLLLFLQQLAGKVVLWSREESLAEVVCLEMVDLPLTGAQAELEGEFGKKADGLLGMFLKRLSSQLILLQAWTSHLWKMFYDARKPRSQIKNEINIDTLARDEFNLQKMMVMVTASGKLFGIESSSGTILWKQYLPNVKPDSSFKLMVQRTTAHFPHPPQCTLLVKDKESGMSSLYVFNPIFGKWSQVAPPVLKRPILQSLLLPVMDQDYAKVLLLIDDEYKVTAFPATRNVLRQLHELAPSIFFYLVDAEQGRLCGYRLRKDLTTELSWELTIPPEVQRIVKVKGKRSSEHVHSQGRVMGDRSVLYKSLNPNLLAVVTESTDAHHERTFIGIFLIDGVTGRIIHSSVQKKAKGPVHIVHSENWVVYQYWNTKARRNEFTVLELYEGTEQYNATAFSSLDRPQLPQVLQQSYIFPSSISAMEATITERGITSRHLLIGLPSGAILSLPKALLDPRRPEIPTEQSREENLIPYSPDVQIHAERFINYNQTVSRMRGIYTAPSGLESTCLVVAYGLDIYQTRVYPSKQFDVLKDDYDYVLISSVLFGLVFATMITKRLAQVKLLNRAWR
Outline: as §1

Measured: binding result

Chain of RNF213 (Q63HN8 whole entry, the tested form may be a part): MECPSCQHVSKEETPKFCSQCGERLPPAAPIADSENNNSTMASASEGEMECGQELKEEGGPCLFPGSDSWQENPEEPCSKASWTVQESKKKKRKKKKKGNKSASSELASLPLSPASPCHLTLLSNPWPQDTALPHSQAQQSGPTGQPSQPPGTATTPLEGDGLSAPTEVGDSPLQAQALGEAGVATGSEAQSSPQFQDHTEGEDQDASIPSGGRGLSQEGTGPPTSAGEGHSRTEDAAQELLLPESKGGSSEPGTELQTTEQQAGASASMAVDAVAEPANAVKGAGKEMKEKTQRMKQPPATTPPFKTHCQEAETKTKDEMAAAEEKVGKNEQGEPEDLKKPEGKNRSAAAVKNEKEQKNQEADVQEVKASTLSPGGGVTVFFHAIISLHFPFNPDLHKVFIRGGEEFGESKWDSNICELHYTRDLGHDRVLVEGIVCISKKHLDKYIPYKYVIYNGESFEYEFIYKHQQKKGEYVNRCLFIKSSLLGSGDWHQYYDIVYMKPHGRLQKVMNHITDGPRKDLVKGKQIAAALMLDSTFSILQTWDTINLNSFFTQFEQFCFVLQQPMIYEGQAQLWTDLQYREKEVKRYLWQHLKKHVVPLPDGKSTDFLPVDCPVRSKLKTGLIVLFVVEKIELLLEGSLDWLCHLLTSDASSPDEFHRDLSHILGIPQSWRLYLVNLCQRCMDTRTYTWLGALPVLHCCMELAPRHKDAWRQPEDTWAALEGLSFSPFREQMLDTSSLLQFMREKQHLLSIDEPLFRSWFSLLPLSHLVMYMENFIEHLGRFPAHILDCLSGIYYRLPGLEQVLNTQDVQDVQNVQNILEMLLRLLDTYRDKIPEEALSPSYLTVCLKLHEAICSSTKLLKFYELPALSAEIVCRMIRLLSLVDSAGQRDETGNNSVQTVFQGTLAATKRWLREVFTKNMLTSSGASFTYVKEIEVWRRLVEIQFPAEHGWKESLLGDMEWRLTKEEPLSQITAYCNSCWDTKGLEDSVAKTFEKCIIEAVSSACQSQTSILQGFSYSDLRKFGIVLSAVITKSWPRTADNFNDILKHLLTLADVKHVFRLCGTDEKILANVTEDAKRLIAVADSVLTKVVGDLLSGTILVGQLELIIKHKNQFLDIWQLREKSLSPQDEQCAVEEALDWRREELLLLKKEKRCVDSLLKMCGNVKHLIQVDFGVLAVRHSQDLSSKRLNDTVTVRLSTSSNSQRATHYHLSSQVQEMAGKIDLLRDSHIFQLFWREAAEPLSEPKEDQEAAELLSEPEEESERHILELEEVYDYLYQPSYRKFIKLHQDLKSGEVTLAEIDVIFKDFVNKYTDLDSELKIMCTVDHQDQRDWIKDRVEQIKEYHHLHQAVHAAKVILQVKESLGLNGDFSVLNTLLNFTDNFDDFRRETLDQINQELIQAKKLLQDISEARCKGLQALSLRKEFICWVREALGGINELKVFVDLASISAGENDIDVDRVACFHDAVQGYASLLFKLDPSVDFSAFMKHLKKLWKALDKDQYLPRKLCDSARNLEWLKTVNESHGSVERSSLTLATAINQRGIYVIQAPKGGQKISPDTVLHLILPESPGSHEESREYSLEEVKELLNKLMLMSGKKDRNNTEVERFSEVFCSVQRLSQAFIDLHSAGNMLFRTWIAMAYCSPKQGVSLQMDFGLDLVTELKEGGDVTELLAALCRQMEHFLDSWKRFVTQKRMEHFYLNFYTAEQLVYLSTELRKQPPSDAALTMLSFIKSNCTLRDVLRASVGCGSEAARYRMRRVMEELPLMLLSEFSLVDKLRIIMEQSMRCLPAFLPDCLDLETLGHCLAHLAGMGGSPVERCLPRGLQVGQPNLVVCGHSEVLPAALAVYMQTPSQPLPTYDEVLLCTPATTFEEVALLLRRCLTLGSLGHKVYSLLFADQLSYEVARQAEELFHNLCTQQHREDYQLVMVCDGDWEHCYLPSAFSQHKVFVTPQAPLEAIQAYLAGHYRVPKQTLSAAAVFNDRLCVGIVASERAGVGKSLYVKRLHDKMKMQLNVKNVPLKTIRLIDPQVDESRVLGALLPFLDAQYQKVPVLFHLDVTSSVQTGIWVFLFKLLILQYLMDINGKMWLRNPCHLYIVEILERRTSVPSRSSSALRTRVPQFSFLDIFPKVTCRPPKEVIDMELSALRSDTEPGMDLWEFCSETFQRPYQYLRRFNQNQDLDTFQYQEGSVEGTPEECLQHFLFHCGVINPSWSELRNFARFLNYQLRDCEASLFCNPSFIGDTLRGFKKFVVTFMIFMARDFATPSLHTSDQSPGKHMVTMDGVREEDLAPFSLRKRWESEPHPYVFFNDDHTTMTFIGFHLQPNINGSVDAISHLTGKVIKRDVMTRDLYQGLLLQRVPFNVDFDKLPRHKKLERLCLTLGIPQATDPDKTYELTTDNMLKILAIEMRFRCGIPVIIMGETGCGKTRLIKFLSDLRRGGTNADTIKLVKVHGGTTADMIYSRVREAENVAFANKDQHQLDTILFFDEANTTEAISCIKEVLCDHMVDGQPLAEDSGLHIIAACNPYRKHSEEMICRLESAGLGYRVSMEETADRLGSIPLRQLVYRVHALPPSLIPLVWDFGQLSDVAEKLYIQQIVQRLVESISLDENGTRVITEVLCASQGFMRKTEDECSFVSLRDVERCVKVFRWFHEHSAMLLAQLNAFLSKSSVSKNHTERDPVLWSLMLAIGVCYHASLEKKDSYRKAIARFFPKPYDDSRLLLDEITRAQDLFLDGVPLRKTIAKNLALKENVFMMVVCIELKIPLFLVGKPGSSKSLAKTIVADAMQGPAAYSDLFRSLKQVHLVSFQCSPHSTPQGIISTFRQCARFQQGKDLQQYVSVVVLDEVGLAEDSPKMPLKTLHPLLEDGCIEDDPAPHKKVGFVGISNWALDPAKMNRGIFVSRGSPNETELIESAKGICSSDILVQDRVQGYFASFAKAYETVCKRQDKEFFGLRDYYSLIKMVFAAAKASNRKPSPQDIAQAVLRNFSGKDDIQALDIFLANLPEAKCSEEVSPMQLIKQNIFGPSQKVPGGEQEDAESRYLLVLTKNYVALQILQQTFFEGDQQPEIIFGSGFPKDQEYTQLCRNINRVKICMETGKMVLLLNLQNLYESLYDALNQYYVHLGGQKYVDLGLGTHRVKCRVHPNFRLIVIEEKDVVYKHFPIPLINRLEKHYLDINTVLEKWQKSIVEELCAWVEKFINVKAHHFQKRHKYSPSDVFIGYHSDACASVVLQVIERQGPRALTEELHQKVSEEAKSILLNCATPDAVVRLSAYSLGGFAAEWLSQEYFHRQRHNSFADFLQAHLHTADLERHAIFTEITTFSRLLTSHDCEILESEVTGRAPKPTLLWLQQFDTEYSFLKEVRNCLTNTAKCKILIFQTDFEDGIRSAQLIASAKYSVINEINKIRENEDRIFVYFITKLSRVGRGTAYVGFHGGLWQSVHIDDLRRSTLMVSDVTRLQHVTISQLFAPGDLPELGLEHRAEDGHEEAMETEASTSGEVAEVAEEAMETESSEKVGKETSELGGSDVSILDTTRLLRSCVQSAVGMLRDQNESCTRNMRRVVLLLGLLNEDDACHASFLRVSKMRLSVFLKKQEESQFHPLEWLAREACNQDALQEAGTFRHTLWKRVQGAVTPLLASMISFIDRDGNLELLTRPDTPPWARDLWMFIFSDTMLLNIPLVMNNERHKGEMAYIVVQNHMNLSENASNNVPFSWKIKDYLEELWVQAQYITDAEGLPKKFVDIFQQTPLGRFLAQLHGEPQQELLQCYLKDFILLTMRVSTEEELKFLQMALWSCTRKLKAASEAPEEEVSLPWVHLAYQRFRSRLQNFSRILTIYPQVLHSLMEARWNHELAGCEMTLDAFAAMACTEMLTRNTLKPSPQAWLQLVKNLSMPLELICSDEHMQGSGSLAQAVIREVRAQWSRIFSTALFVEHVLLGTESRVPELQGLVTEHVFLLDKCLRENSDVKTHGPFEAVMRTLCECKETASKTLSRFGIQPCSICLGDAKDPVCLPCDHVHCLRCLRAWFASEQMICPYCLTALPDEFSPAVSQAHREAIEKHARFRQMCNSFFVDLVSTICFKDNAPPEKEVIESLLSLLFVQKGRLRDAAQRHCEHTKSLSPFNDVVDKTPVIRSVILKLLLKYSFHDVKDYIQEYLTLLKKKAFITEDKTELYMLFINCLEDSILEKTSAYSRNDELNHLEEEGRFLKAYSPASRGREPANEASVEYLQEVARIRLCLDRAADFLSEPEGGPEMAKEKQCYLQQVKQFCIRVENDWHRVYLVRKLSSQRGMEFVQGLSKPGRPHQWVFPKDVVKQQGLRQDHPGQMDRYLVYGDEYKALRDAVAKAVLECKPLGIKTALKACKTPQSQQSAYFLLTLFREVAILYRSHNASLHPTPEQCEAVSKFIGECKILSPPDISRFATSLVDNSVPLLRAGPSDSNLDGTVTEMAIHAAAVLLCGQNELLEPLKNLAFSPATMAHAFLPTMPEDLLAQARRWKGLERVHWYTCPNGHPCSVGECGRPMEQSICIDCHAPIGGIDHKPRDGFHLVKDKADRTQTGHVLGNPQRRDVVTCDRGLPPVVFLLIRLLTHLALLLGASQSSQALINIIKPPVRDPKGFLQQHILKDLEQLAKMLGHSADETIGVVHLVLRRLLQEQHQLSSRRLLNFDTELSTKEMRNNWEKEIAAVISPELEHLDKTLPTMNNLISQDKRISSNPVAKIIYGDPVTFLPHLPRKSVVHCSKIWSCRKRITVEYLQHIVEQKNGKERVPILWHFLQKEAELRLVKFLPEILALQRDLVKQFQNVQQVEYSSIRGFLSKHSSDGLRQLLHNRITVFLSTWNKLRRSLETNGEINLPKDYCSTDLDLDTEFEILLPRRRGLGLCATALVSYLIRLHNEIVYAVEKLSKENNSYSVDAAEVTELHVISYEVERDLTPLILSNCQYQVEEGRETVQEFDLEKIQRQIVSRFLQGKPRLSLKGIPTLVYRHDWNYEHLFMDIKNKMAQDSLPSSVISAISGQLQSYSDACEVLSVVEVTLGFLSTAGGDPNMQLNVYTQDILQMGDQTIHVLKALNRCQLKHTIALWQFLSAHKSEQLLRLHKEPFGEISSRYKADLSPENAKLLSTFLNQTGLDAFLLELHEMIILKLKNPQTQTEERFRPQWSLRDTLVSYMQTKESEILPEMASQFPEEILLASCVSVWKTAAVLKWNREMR

B1: LZTR1 R810W-FLAG (other, human, UniProt Q8N653 1-840, looked up)
chain: MAGPGSTGGQIGAAALAGGARSKVAPSVDFDHSCSDSVEYLTLNFGPFETVHRWRRLPPCDEFVGARRSKHTVVAYKDAIYVFGGDNGKTMLNDLLRFDVKDCSWCRAFTTGTPPAPRYHHSAVVYGSSMFVFGGYTGDIYSNSNLKNKNDLFEYKFATGQWTEWKIEGRLPVARSAHGATVYSDKLWIFAGYDGNARLNDMWTIGLQDRELTCWEEVAQSGEIPPSCCNFPVAVCRDKMFVFSGQSGAKITNNLFQFEFKDKTWTRIPTEHLLRGSPPPPQRRYGHTMVAFDRHLYVFGGAADNTLPNELHCYDVDFQTWEVVQPSSDSEVGGAEVPERACASEEVPTLTYEERVGFKKSRDVFGLDFGTTSAKQPTQPASELPSGRLFHAAAVISDAMYIFGGTVDNNIRSGEMYRFQFSCYPKCTLHEDYGRLWESRQFCDVEFVLGEKEECVQGHVAIVTARSRWLRRKITQARERLAQKLEQEAAPVPREAPGVAAGGARPPLLHVAIREAEARPFEVLMQFLYTDKIKYPRKGHVEDVLLIMDVYKLALSFQLCRLEQLCRQYIEASVDLQNVLVVCESAARLQLSQLKEHCLNFVVKESHFNQVIMMKEFERLSSPLIVEIVRRKQQPPPRTPLDQPVDIGTSLIQDMKAYLEGAGAEFCDITLLLDGHPRPAHKAILAARSSYFEAMFRSFMPEDGQVNISIGEMVPSRQAFESMLRYIYYGEVNMPPEDSLYLFAAPYYYGFYNNRLQAYCKQNLEMNVTVQNVLQILEAADKTQALDMKRHCLHIIVHQFTKVSKLPTLWSLSQQLLLDIIDSLASHISDKQCAELGADI
notes: Stably expressed in U87 cells by lentivirus; also called LZTR1-FLAG-R810W; LZTR1 RW; not shown: FLAG tag
binds: all assays above
